Measurements published in the supplement of paper PMC12764529.
± gives the half width of the 95% confidence interval.

Test: folding stability dG unfold from chymotrypsin proteolysis; higher = more stable
Outline: (§1)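 Only designs with AlphaFold2 dimer inter-PAE above 15 were retained; each was a mini-protein under 80 residues with no cysteine, in a PA-tagged cDNA display construct. After digestion with trypsin and chymotrypsin and sequencing, K50 was inferred by Bayesian fitting of counts, and unfolding free energy was derived per protease or combined against a sequence-predicted unfolded-state K50 and a shared folded-state K50.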

| Sequence | folding stability dG unfold |
| --- | --- |
| SSSGTDPLTVRVTVTLTDPSTGKETLLEYEVEVPPGTPVEVELPDVPPSASVTVEVYDPGGVRIGTRTLPSA [r9_478_JUSTAS] | 1.78 ± 0.11 kcal/mol |
| SAGGAPVPVSVTVEIFKRPDGYIIKVNIPSGETKTFSSLEELEKFLKENPSLKITKRTTVPIEKYYESSAGG [r13_730_JUSTAS] | 2.83 ± 0.021 kcal/mol |
| SAKKVIIEVKSLEELLKAAKEAAKKGEKVEVLVKLKDGYYVKITMEFDKKTKKIKIKKIEIKPIKKEDLSAG [r14_455_TrROS_Hall] | 2.75 ± 0.21 kcal/mol |
| SAGGSAKGKKTRTITIMAPFDNKEEAREQAEEIADNIMNNLPDDMKIKVEVSWNPEDNYVMATIRISAGGSA [r15_981_TrROS] | 0.842 ± 0.11 kcal/mol |
| SAGGSAGGSAGGPYWRVKIEWMDPNGKKKEHTFTFPPGWPLEEIAEELKPNGYKIEVEPLSAGGSAGGSAGG [r7_226_TrROS] | 1.7 ± 0.1 kcal/mol |
| SAGGSDKEEKEKEIDIRIVQVPWDDARELAEESDDPVIFMLPDGHIHIFKGDGKVEPFPIPDPEEFSAGGSA [r2_34_TrROS] | 0.199 ± 0.15 kcal/mol |
| SAGAMPPVVEVAPVEGEGLLRVTVPVPTSDVVRVTVDLGDRRLEYTLPRDASLEVSTADAEVRVAVELVSAG [r14_96_JUSTAS] | 0.639 ± 0.1 kcal/mol |
| SAGGSAGGSAKLVKITFSNGEELVLPADKFSIEAIKSLPVPAKVEVFDVPKSDTNLEDLLKSAGGSAGGSAG [r3_69_TrMRF] | 2.03 ± 0.022 kcal/mol |
| SAGGEVKIEVVEKDGELYIVVTVRAPSVEELKKALEELGLEVEVVKIEEVKGEDGETYVVVVVKIKPSAGGS [r16_699_TrROS_Hall] | 3.68 ± 0.065 kcal/mol |
| SAGGEVKVEIKYDKKKNKIEIKVIVRDKETGEWKELSAEEIAKLLKKKLKLPNVKEIKVEVYEPGEKPSAGG [r13_327_TrROS_Hall] | 1.98 ± 0.12 kcal/mol |
| SAGGSAGGSAMPEEVKLRVVKVKVKEVEVETDENGEKRTRVKAEVVEEREITLPKEELEKLSAGGSAGGSAG [r3_121_TrROS_Hall] | 1.04 ± 0.074 kcal/mol |
| SAEKKTVRVVLEITLPPGLKPGDTITVKIEVDGKVYEAKILRVEEVPPGQTVRIVLELPAEDVKITIEPSAG [r14_554_TrROS_Hall] | 4.06 ± 0.08 kcal/mol |
| KTITIIIPMTPEQIEELAKALAEKLGLSEEEVEVVKVEKIKNEDGELYVKITIKLKETGKEITIIVPLKDLS [r1_21_TrROS_Hall] | 3.2 ± 0.12 kcal/mol |
| SAGGSAGGSAKKTLYKVKITKKNKNGEKIEIVVPKSEDEIKEEAKKKFGIDKIEIEPVELKSAGGSAGGSAG [r3_220_TrROS_Hall] | 0.466 ± 0.19 kcal/mol |
| SAGGSAGGSMPVKVITTISRETVPLPNGDPGARYTVTTTVTTDSTVVSTTTTTFSSEAELAAASAGGSAGGS [r12_461_JUSTAS] | 0.854 ± 0.12 kcal/mol |
| SAGGGSISISLPAEELKALSPEDVIEVTAPDGTKIKAKPVKKGDTYPVTAEDPNNPKNATEMGTATLPSAGG [r13_745_JUSTAS] | 0.4 ± 0.095 kcal/mol |
| SAGGSAGGSAGKMYRITVTNENGEKLEIEVPEEVKTEEELKEELKKKIPNVVEVKIEEVPSAGGSAGGSAGG [r11_311_TrROS_Hall] | 0.433 ± 0.14 kcal/mol |
| SAGGSAKVTIDTDNGIIKIEVGGKLIAEIEIPPGFPGGIYLEYEPNPPTLKFYIYTKNGPVYINDISAGGSA [r2_399_TrMRF] | 3.96 ± 0.17 kcal/mol |
| SAGGEGEILDKKEFTFPDNVKLEVYVFKVGDKYFVKVKTTITVPENPTKPKKPLKKITPEDIKKALEKSAGG [r13_760_TrMRF] | 1.88 ± 0.21 kcal/mol |
| SAGGSAGGKGGKPKIKLEPINTNPNGWQTFRFEVTPEAIDDLMDDFPNVQVERHPGEMYITVRNSAGGSAGG [r6_395_TrROS] | -0.0427 ± 0.39 kcal/mol |
| SAGGSAGGSAGGKWRPITFPFPDGWYLQIYMNPDGDVKAEIYNPDGKPVEKTFPPGEPIFSAGGSAGGSAGG [r7_215_TrROS] | 1.67 ± 0.02 kcal/mol |

| Sequence | folding stability dG unfold |
| --- | --- |
| SAGGSAGGSARITVTPEGGYWRVTIKGPGKTRTFQFPMPANEAEEIVEELQNPPIDIDVEPVSAGGSAGGSA [r18_103_TrROS] | -0.142 ± 0.2 kcal/mol |
| SMKKVLIVTPNPEINPEEVVKALKEKGFKEIKVFSTPEELKEALPEYDIVIIEENGKLYIKYIPPGKLAKSA [r9_750_TrMRF] | 1.79 ± 0.12 kcal/mol |
| SAGGSAGGGMNATPKKIKVTITITDPSGNKTTVTREFDSEEEAEKFVKELLPPNRSYTVTYEPESAGGSAGG [r6_290_JUSTAS] | 2.075 ± 0.017 kcal/mol |
| SAGGMKVIEVEMTADEVKALVKELAEKDDLKIYIYVDGKKIELTVDEIKKIPPENQKVTIIIEKKKESAGGS [r16_628_TrROS_Hall] | 3.11 ± 0.14 kcal/mol |
| SAGGSAEPRPVVVVFEGTEEEVEELVQKVRDEGFAIDFKVEPLPDPRYYRATVIVRDPDGSWTAKLSAGGSA [r15_177_TrMRF] | 2.11 ± 0.041 kcal/mol |
| SAGGSAGGSANIDIKVEENPGNGYRKVEVTMTVDDLRELFGNEPIPPGEERQIKMTIYLPIPSAGGSAGGSA [r18_327_TrROS] | 1.37 ± 0.095 kcal/mol |
| SAGGSAGGPEVKILKVDPENNTITLALPVDNEILLLEIKIEPDPENPNSFKATIELKVFPYNEASAGGSAGG [r6_371_TrMRF] | 3.21 ± 0.096 kcal/mol |
| SPSTTIPQTITLDTKLPNGKPATPEEVKAIAEEIVKKLEKEKGVKISINVKVTPVDSSGKYKLDITITIIKS [r1_231_JUSTAS] | 2.81 ± 0.072 kcal/mol |
| SAGGMKIVSIEYDKENKKITIKVEAPPGVSAEELAKKIKELAKELFGKEIEIEVKVEKVEFFEPEEESAGGS [r8_314_TrROS_Hall] | 3.12 ± 0.13 kcal/mol |
| SAGGSAGGSAAKPIPFTITSVSVPTAPDGKKYAVVEISFPGSGAKAWAVYDIDDPYIKEAGSAGGSAGGSAG [r3_57_TrMRF] | 1.71 ± 0.15 kcal/mol |
| SAGGKLLEELNVEKVEVVEVKEFSLPPLPLLVLLPTVTVTFKDGSKVKFKVLFLYDPSNPKPIVVAGSAGGS [r8_422_TrMRF] | 3.64 ± 0.048 kcal/mol |
| SAGDVKVITIKNPDGWQASIALNEDGTVYLMFNSPDQFLDLIEDLGFPITSVEMHPNGMMIFTIELPPSAGG [r19_257_TrROS] | 4.26 ± 0.17 kcal/mol |
| SAGMELELELEFRLEDGLEVRIRVKVRFDPETGELVIEEVRIEVRPLPPPPPLVLTDEELEALGLEPEESAG [r5_393_TrROS_Hall] | 3.32 ± 0.13 kcal/mol |
| SAGGSAGGWQPIAEHEFENPEDGKKIKIYYWPENGMMRIEFPNGRKHVIPPGDPFKSIEEMIKASAGGSAGG [r6_72_TrROS] | 1.81 ± 0.059 kcal/mol |
| SAGGSAGGKKIEMKIIKNEDGTKLIVFKSKEEAEEALKKAGYEVKIVSVNEEKGYVVIEIRKKKSAGGSAGG [r6_510_TrROS_Hall] | 2.21 ± 0.04 kcal/mol |
| SAGGSAGGSAGMKELEITIIDKKTGKPLKVKVTLVEVDGKLYLVIEVYKNGKPLETYVLPSAGGSAGGSAGG [r11_631_TrROS_Hall] | 3.2 ± 0.072 kcal/mol |
| SAGGSAPARIVLPGGRTRTLRLSEISPELLAAFPDVLVRLPGGEVRRLPADTLLSLEGDYTLVVPGSAGGSA [r15_733_TrMRF] | 0.573 ± 0.12 kcal/mol |
| SAGGKEKKPKVELKITSISEFEGGLVIEGEATTPTKKIKVLAVYDPSTGKITVWRETPEGIEPLAEFGSAGG [r13_445_TrMRF] | 2.401 ± 0.018 kcal/mol |
| SAGGMEKIEIEVENEDGEKVKIEIYFDEETGFIVVKIEGENPELIDALKKKLGLEIVEKREDGYLVFKSAGG [r13_937_TrROS_Hall] | 3.72 ± 0.13 kcal/mol |
| SGLPEELARKLGLSAMTPLPDGTLVMALPDGTRVVVRIETTEVRLSPLGEPAVEVEVEVERLPAPAPEAASA [r9_648_JUSTAS] | 1.67 ± 0.018 kcal/mol |
| SAGGSAVRIKVWPPNGKEQWIPIPSSMTPSTVQEMAENLADDWQEQNGNKNVKVEVDPDNGWIRIRSAGGSA [r15_33_TrROS] | 0.197 ± 0.084 kcal/mol |

Test: folding stability dG unfold from trypsin proteolysis; higher = more stable
Outline: as §1

| Sequence | folding stability dG unfold |
| --- | --- |
| SSSGTDPLTVRVTVTLTDPSTGKETLLEYEVEVPPGTPVEVELPDVPPSASVTVEVYDPGGVRIGTRTLPSA [r9_478_JUSTAS] | 1.81 ± 0.14 kcal/mol |
| SAGGAPVPVSVTVEIFKRPDGYIIKVNIPSGETKTFSSLEELEKFLKENPSLKITKRTTVPIEKYYESSAGG [r13_730_JUSTAS] | 1.94 ± 0.047 kcal/mol |
| SAKKVIIEVKSLEELLKAAKEAAKKGEKVEVLVKLKDGYYVKITMEFDKKTKKIKIKKIEIKPIKKEDLSAG [r14_455_TrROS_Hall] | 2.51 ± 0.12 kcal/mol |
| SAGGSAKGKKTRTITIMAPFDNKEEAREQAEEIADNIMNNLPDDMKIKVEVSWNPEDNYVMATIRISAGGSA [r15_981_TrROS] | 0.404 ± 0.3 kcal/mol |
| SAGGSAGGSAGGPYWRVKIEWMDPNGKKKEHTFTFPPGWPLEEIAEELKPNGYKIEVEPLSAGGSAGGSAGG [r7_226_TrROS] | 0.962 ± 0.044 kcal/mol |
| SAGGSDKEEKEKEIDIRIVQVPWDDARELAEESDDPVIFMLPDGHIHIFKGDGKVEPFPIPDPEEFSAGGSA [r2_34_TrROS] | -0.288 ± 0.071 kcal/mol |
| SAGAMPPVVEVAPVEGEGLLRVTVPVPTSDVVRVTVDLGDRRLEYTLPRDASLEVSTADAEVRVAVELVSAG [r14_96_JUSTAS] | 0.5 ± 0.031 kcal/mol |
| SAGGSAGGSAKLVKITFSNGEELVLPADKFSIEAIKSLPVPAKVEVFDVPKSDTNLEDLLKSAGGSAGGSAG [r3_69_TrMRF] | 0.72 ± 0.043 kcal/mol |
| SAGGEVKIEVVEKDGELYIVVTVRAPSVEELKKALEELGLEVEVVKIEEVKGEDGETYVVVVVKIKPSAGGS [r16_699_TrROS_Hall] | 2.41 ± 0.086 kcal/mol |
| SAGGEVKVEIKYDKKKNKIEIKVIVRDKETGEWKELSAEEIAKLLKKKLKLPNVKEIKVEVYEPGEKPSAGG [r13_327_TrROS_Hall] | 1.31 ± 0.11 kcal/mol |
| SAGGSAGGSAMPEEVKLRVVKVKVKEVEVETDENGEKRTRVKAEVVEEREITLPKEELEKLSAGGSAGGSAG [r3_121_TrROS_Hall] | 2.35 ± 0.18 kcal/mol |
| SAEKKTVRVVLEITLPPGLKPGDTITVKIEVDGKVYEAKILRVEEVPPGQTVRIVLELPAEDVKITIEPSAG [r14_554_TrROS_Hall] | 3.21 ± 0.079 kcal/mol |
| KTITIIIPMTPEQIEELAKALAEKLGLSEEEVEVVKVEKIKNEDGELYVKITIKLKETGKEITIIVPLKDLS [r1_21_TrROS_Hall] | 1.76 ± 0.08 kcal/mol |
| SAGGSAGGSAKKTLYKVKITKKNKNGEKIEIVVPKSEDEIKEEAKKKFGIDKIEIEPVELKSAGGSAGGSAG [r3_220_TrROS_Hall] | -0.305 ± 0.16 kcal/mol |
| SAGGSAGGSMPVKVITTISRETVPLPNGDPGARYTVTTTVTTDSTVVSTTTTTFSSEAELAAASAGGSAGGS [r12_461_JUSTAS] | 1.08 ± 0.035 kcal/mol |
| SAGGGSISISLPAEELKALSPEDVIEVTAPDGTKIKAKPVKKGDTYPVTAEDPNNPKNATEMGTATLPSAGG [r13_745_JUSTAS] | 0.0233 ± 0.084 kcal/mol |
| SAGGSAGGSAGKMYRITVTNENGEKLEIEVPEEVKTEEELKEELKKKIPNVVEVKIEEVPSAGGSAGGSAGG [r11_311_TrROS_Hall] | 0.242 ± 0.096 kcal/mol |
| SAGGSAKVTIDTDNGIIKIEVGGKLIAEIEIPPGFPGGIYLEYEPNPPTLKFYIYTKNGPVYINDISAGGSA [r2_399_TrMRF] | 3.5 ± 0.43 kcal/mol |
| SAGGEGEILDKKEFTFPDNVKLEVYVFKVGDKYFVKVKTTITVPENPTKPKKPLKKITPEDIKKALEKSAGG [r13_760_TrMRF] | 0.151 ± 0.33 kcal/mol |
| SAGGSAGGKGGKPKIKLEPINTNPNGWQTFRFEVTPEAIDDLMDDFPNVQVERHPGEMYITVRNSAGGSAGG [r6_395_TrROS] | -0.418 ± 0.56 kcal/mol |
| SAGGSAGGSAGGKWRPITFPFPDGWYLQIYMNPDGDVKAEIYNPDGKPVEKTFPPGEPIFSAGGSAGGSAGG [r7_215_TrROS] | 1.25 ± 0.027 kcal/mol |
